The target in the test is T4L-β2AR (N-terminally fused T4 lysozyme-β2AR construct truncated in position 365), BI-167107 bound (human). As to the kind of experiment: crystal structure.

Buried surface for GαsRas, buried surface for the β2AR and total buried surface of the β2AR-GαsRas interface data for one substance are collected here from patent publication US20140275487A1.

As for “Gαs subunit of the heterotrimeric Gs protein (from UniProt P04896 2-394)”, the buried surface for GαsRas was determined as 1300 A^2, the buried surface for the β2AR came to 1280 A^2 and the total buried surface of the β2AR-GαsRas interface is 2580 A^2.
